Results taken from paper PMC12810954, “Targeted computational design of an interleukin-7 superkine with enhanced folding efficiency and immunotherapeutic efficacy” (eLife, 2026).

Target: T1, recombinant murine IL-7 receptor alpha (mouse, UniProt P16872 21-239)
T1 construct: interleukin-7 receptor subunit alpha, mouse; Probably the extracellular domain (catalogue product); The SPR methods say only 'recombinant murine IL7Rα' without a supplier; also called IL7Rα; mIL-7Rα; source: bought: Sino Biological; not shown: polyhistidine, C-terminal, kept
T1 sequence (looked up): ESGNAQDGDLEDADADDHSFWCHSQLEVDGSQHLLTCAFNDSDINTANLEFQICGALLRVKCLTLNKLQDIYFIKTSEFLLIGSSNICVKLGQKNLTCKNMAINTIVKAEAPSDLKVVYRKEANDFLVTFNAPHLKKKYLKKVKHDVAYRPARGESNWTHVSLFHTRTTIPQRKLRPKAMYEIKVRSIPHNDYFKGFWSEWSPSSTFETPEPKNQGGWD
Test: SPR; murine IL7Rα immobilised on a CM5 chip by amine coupling (Rmax below 30); threefold serial dilutions of WT-IL7 and Neo-7 variants in HBS-EP+ at 50 µL/min, association 180 s, dissociation 600 s; Biacore T200
Conditions: both partners purified

Kd: 13.4 nM | koff: 0.0784 s⁻¹ | kon: 5.86e+06 M⁻¹ s⁻¹
B1: recombinant WT-IL7, E. coli expressed and refolded (ligand, human, UniProt P13232 26-177, looked up)
chain: DCDIEGKDGKQYESVLMVSIDQLLDSMKEIGSNCLNNEFNFFKRHICDANKEGMFLFRAARKLRQFLKMNSTGDFDLHLLKVSEGTTILLNCTGQVKGRKPAALGEAQPTKSLEENKSLKEQKKLNDLCFLKRLLQEIKTCWNKILMGTKEH
notes: interleukin-7, human, wild type; The methods say only that a similar procedure as for Neo-7 was used
